Where “and” joins values, the source holds several entries; their conditions need not be identical. Equal values may be shown once.
Legend:
[1] = biological target: H7N9病毒的血凝素HA (H7N9病毒); assay: ELISA, positive control well
[2] = biological target: H7N9病毒的血凝素HA (H7N9病毒); assay: ELISA of 293F supernatant with recombinant 7O2

| Molecule | 450 (absorbance at 450 nm) [1] | 450 (absorbance at 450 nm) [2] |
| --- | --- | --- |
| 阳性对照 | 1.15 (2×) and 1.21 | – |
| 抗H7N9全人源单克隆抗体7O2 (antibody, V domains shown) VH: EVQLVESGGGLVQPGGSLRLSCAASGFTFSSYWMHWVRQAPGKGLVWVSRINSDGSSTSYADSVKGRFTISRDNAKNTLYLQMNSLRAEDTAVYYCARRSKTGKFDPWGQGTLVTVSS VL: SYELTQPPSVSVSPGQTARITCSGDALPKQYAYWYQQKPGQAPVLVIYKDSERPSGIPERFSGSSSGTTVTLTISGVQAEDEADYYCQSADSSGTLEVFGGGTKLTVLV | – | 3 and 3.12 and 2.96 |

— patent CN109957013A
